Article PMC12416549 (2024)
Substitutions are numbered along the chain they refer to. Names and notes keep the numbering of the source. One block for each binder: values may come before it.

Molecular target: T1, TNFR1 (Homo sapiens, UniProt P19438)
T1 chain: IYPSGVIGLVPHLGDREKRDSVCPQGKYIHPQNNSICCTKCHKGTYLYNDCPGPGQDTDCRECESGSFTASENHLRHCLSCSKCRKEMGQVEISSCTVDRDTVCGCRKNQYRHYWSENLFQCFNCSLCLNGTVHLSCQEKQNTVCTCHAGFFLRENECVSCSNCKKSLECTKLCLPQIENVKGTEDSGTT
Test: yeast display SC50

apparent Kd (screen): 0.539 nM
B1: A105Q (designed binder)
chain: MTLQELLREEALRRAEAEAFRYALELLAEKFPEQKEYLLDLAEEIESQIRSLSGVDVEDVRKFLDKEWAWVKELLAEHPAELAEVEAARAARLAELRAEVEAKVQA

apparent Kd (screen): 0.49 nM
B2: K103H (designed binder)
chain: B1 chain with K103H, Q105A

apparent Kd (screen): 0.539 nM
B3: A98Y (designed binder)
chain: B1 chain with A98Y, Q105A

apparent Kd (screen): 7.78 nM
B4: W68P (designed binder)
chain: B1 chain with W68P, Q105A

apparent Kd (screen): 0.49 nM
B5: S47M (designed binder)
chain: B1 chain with S47M, Q105A

apparent Kd (screen): 0.653 nM
B6: Y22M (designed binder)
chain: B1 chain with Y22M, Q105A

apparent Kd (screen): 2.48 nM
B7: L39E (designed binder)
chain: B1 chain with L39E, Q105A

apparent Kd (screen): 0.539 nM
B8: A94W (designed binder)
chain: B1 chain with A94W, Q105A

apparent Kd (screen): 1.4 nM
B9: G54A (designed binder)
chain: B1 chain with G54A, Q105A

apparent Kd (screen): 0.718 nM
B10: A94C (designed binder)
chain: B1 chain with A94C, Q105A

apparent Kd (screen): 22.2 nM
B11: L38P (designed binder)
chain: B1 chain with L38P, Q105A

apparent Kd (screen): 10.4 nM
B12: R8P (designed binder)
chain: B1 chain with R8P, Q105A

apparent Kd (screen): 22.2 nM
B13: W70L (designed binder)
chain: B1 chain with W70L, Q105A

apparent Kd (screen): 0.653 nM
B14: E77H (designed binder)
chain: B1 chain with E77H, Q105A

apparent Kd (screen): 0.718 nM
B15: E9L (designed binder)
chain: B1 chain with E9L, Q105A

apparent Kd (screen): 0.446 nM
B16: L12N (designed binder)
chain: B1 chain with L12N, Q105A

apparent Kd (screen): 0.49 nM
B17: E18H (designed binder)
chain: B1 chain with E18H, Q105A

apparent Kd (screen): 9.41 nM
B18: F63R (designed binder)
chain: B1 chain with F63R, Q105A

apparent Kd (screen): 0.539 nM
B19: A83K (designed binder)
chain: B1 chain with A83K, Q105A

apparent Kd (screen): 10.4 nM
B20: I45T (designed binder)
chain: B1 chain with I45T, Q105A

apparent Kd (screen): 0.869 nM
B21: V71E (designed binder)
chain: B1 chain with V71E, Q105A

apparent Kd (screen): 0.718 nM
B22: A105D (designed binder)
chain: B1 chain with Q105D

apparent Kd (screen): 0.446 nM
B23: E95Q (designed binder)
chain: B1 chain with E95Q, Q105A

apparent Kd (screen): 0.653 nM
B24: A15V (designed binder)
chain: B1 chain with A15V, Q105A

apparent Kd (screen): 0.539 nM
B25: R97G (designed binder)
chain: B1 chain with R97G, Q105A

apparent Kd (screen): 0.446 nM
B26: E81H (designed binder)
chain: B1 chain with E81H, Q105A

apparent Kd (screen): 29.5 nM
B27: Q48W (designed binder)
chain: B1 chain with Q48W, Q105A

apparent Kd (screen): 0.49 nM
B28: E33D (designed binder)
chain: B1 chain with E33D, Q105A

apparent Kd (screen): 0.593 nM
B29: V57H (designed binder)
chain: B1 chain with V57H, Q105A

apparent Kd (screen): 0.539 nM
B30: A42S (designed binder)
chain: B1 chain with A42S, Q105A

apparent Kd (screen): 0.446 nM
B31: E5T (designed binder)
chain: B1 chain with E5T, Q105A

apparent Kd (screen): 0.593 nM
B32: M1R (designed binder)
chain: B1 chain with M1R, Q105A

apparent Kd (screen): 0.539 nM
B33: A106R (designed binder)
chain: B1 chain with Q105A, A106R

apparent Kd (screen): 2.25 nM
B34: E86F (designed binder)
chain: B1 chain with E86F, Q105A

apparent Kd (screen): 0.49 nM
B35: E46P (designed binder)
chain: B1 chain with E46P, Q105A

apparent Kd (screen): 2.48 nM
B36: W68C (designed binder)
chain: B1 chain with W68C, Q105A

apparent Kd (screen): 0.539 nM
B37: E81W (designed binder)
chain: B1 chain with E81W, Q105A

apparent Kd (screen): 13.8 nM
B38: L41H (designed binder)
chain: B1 chain with L41H, Q105A

apparent Kd (screen): 1.86 nM
B39: V57E (designed binder)
chain: B1 chain with V57E, Q105A

apparent Kd (screen): 22.2 nM
B40: L6N (designed binder)
chain: B1 chain with L6N, Q105A

apparent Kd (screen): 0.653 nM
B41: E101K (designed binder)
chain: B1 chain with E101K, Q105A

apparent Kd (screen): 0.539 nM
B42: T2F (designed binder)
chain: B1 chain with T2F, Q105A

apparent Kd (screen): 7.78 nM
B43: L24R (designed binder)
chain: B1 chain with L24R, Q105A

apparent Kd (screen): 0.956 nM
B44: K66T (designed binder)
chain: B1 chain with K66T, Q105A

apparent Kd (screen): 0.718 nM
B45: A11H (designed binder)
chain: B1 chain with A11H, Q105A

apparent Kd (screen): 1.05 nM
B46: V55Q (designed binder)
chain: B1 chain with V55Q, Q105A

apparent Kd (screen): 0.653 nM
B47: A87S (designed binder)
chain: B1 chain with A87S, Q105A

apparent Kd (screen): 0.539 nM
B48: A17G (designed binder)
chain: B1 chain with A17G, Q105A

apparent Kd (screen): 0.593 nM
B49: E99F (designed binder)
chain: B1 chain with E99F, Q105A

apparent Kd (screen): 0.446 nM
B50: D59T (designed binder)
chain: B1 chain with D59T, Q105A

apparent Kd (screen): 0.405 nM
B51: L26W (designed binder)
chain: B1 chain with L26W, Q105A

apparent Kd (screen): 1.05 nM
B52: E16M (designed binder)
chain: B1 chain with E16M, Q105A

apparent Kd (screen): 22.2 nM
B53: V71G (designed binder)
chain: B1 chain with V71G, Q105A

apparent Kd (screen): 0.653 nM
B54: V55L (designed binder)
chain: B1 chain with V55L, Q105A

apparent Kd (screen): 0.653 nM
B55: A105M (designed binder)
chain: B1 chain with Q105M

apparent Kd (screen): 12.5 nM
B56: A28N (designed binder)
chain: B1 chain with A28N, Q105A

apparent Kd (screen): 2.73 nM
B57: L3M (designed binder)
chain: B1 chain with L3M, Q105A

apparent Kd (screen): 1.05 nM
B58: R92E (designed binder)
chain: B1 chain with R92E, Q105A

apparent Kd (screen): 2.05 nM
B59: L41N (designed binder)
chain: B1 chain with L41N, Q105A
